# Test results published in the domain aggregation screens of Martell et al. (2025).
# Assay: soluble fraction after stress (log2 fold change); higher = more stays soluble; pooled small domains, quantitative proteomics
# Conditions: stress: pH 4
# How it was run: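 Values are log2 fold changes, and higher ones mean more of the domain stayed soluble. Each fold change reflects the soluble amount of a domain after acid stress and is taken as a measure of aggregation propensity. The stress was pH 4, applied to pooled custom libraries of small protein domains analysed by high-throughput quantitative proteomics.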
row,Sequence,soluble fraction (log2)
1,HMTESFEFTMNDLVQNNLIMGSGAKERRIAVGEALGIGYTNAKQFLSRLNHYGITRKEFDDEIEKVNQN,-0.217
2,HMTETEIVIGGKYRHYKGGEYELVSIVKHSETLEELVIYKSLSTGEMWARPKSLFVGLVDGQPRYTL,-1.39
3,HMTETIPVSERLFRYLFEEKGKRVQKIQQTSHARVRMERSPYSVVVSGTKDAVEAAMESLKATEKELLEA,0.321
4,HMTETPDDLLAALKKNKKAQATFDAFSPSNKKEYILWITEAKTEATRTKRLETAIEWMSEGKARNW,0.0435
5,HMTETTTVPKLKGLTKDEAEDAAKSSKIKLEFIDEISKTVEAGVIIKQEKDEGETVNAGDTVKVYVSIGT,-0.0593
6,HMTEWSIHEVAQRSGVTTRTLRHYDAIGILSPTRTGANGYRYYGPEALVRLQRILLLRDLGLALSDIAE,-1.66
7,HMTEYFTIESQEGERIDRYLSEELEDKSRSYIQKLIRDGHVLVDGKTVKAGYRLVAGDNIAITLPEI,-0.133
8,HMTFAPTAIPSLTRPMEELMSWSFTPNEAFILSRINGLWDVRSIAKISPFPEGEVLRVFEKLHDGGLIRW,-1.54
9,HMTFNEPSPKEIMDYSLSRGYKVDADAFIDFYRGKAKAYGKEGLWLDGRGRLVKDWRAKLRVVWFKDENKL,-1.09
10,HMTGDIGAEAAKAAALAHAGVTESQTAKMKVDRDWDDGRLEYDVEFDVGRTEYEYTIDGVTGAVLEYEQDI,0.0208
11,HMTGDIIKQERKKKNLTQIELAKKVGISRNALINYEAGTRIPPISVQLKLADVLGIDILDLK,-0.0221
12,HMTGDISRALDQLPADMRTVLILYALEKQRYEDIAQITGVSVGTVKSRLNRARQKLAAILANQREQNE,-0.101
13,HMTGDNQTIGGGGFHHVAIRAHDFDASVKFYGETLGFREKIAWGEGDKRAIMMDTGDGNYIEIF,-0.0678
14,HMTGEDIKKVILREYAREKSLLSIFHELSKVNSNVTLEVIKDIITNIDKLPNDLLQYFKEESSFYQKNKN,-1.35
15,HMTGGIWVQIQGAVERPGVYSLPRDSRLKDLLEAAGGFGRDADTEKVNQAARLEDGAMYRVPRQGEG,0.164
16,HMTGGLLVHVAGAVGAPGVVSLPEGARVVDAIEAAGGAREDADTDQLNLARPVVDGEQVRVPVVGEVLE,0.22
17,HMTGINMSYEEYKAMADIIVPLIKAGHSPYHIVTNHPELNISEKTLYNYIENGIFREFGLLDINL,-1.91
18,HMTGIRVYPNPTSSELRFSVATDAALYDATGARLRVVRGSDMMDIRDLASGTYYVRFADGSTQSVVVT,-0.0136
19,HMTGKLGKIILQPKQTVYGITKKYQISESELRRLNPQLDSHLKIGDEVILPAENIKKFGGNQPVAVS,≥ 0.43
20,HMTGKTTLEYLNPLLERGIPVWDYLAKASGKAKEEVQEMVSKGLVPGAEAAKAIADYMGAEFAGSMA,-0.343
21,HMTGKVKWYDADKGFGFVTEDGGRDVYVRKSALPQGVETLKAGQRLEFGIAEGRRGPQALSVR,-0.0382
22,HMTGLFSPTEQTRHSKTGATLYSVKLAERIERNAFQSLKKRAKEHDGYYSSFTRSFLFDTPEDAEAFRGT,-0.0888
23,HMTGMEASLSKLLQGEQFADLRKALIDKGIRKLEAFKRLNLWVFMNRNRLYSIGQRQTVYSTLQRALASE,0.085
24,HMTGREIDQLFSVVNDLKAKGVGMVFISHHLDEIARIADSVSVLRDGGFVAEVPASTPEKKLVTLMVGRDI,-0.369
25,HMTGWINVDKNWYYMNNSGSMARGMINVNNVSYYLDENGKMLSNTTVNVNGTDYRIDASGAMSQI,-0.153

row,Sequence,soluble fraction (log2)
1,HMTHEIKIKSHSLFASEGTKYQWYLNNIKINDATSQELEITSPGIYKLEMTNFDGDVIEKQIIVGLTNS,-1.52
2,HMTHHGHSIKRIRDMLGIKQETLAAELNMTQQAFSKLEQKEQIEDEMLDKIAKILHVSTEALKT,-0.459
3,HMTHPAHLARIGALIRSARQHEGLTQAQLAELLGTSQSAIHRIEQGGQNITLDMLTRISAALDSEIVTIG,-1
4,HMTHPQVEAYLDDLARMLADIDPGERDDILASVREHLDAEIAAGHGSDAVVNATLLRLGPPEQVAAAARTN,-0.899
5,HMTIAFPSNDVDAVVGYFESRGFDRTASISTATVILQQAKIDGVKVFELIDTLQGMDKVQLSYIVTEILN,-0.0582
6,HMTIATLGERIRKLRKERGLTLAELAGDKLSKGMLSLIENNRAKPSMESLEYIAKRLGVEPAELLE,0.297
7,HMTIENTDTFLETLWEQVQRASVDENGIITSRVLIWDEGTKLDEILSWFDKRHSLGALYLQFG,-1.74
8,HMTIFGWQTDETGKWYRNADGTFFEAGWKEIDGAKYYFDENGYVKTGWLELDGKDYYFDEEGRYDSSKVR,-1.69
9,HMTIGLLISKARTNSGLTQAELATRAGTSQAAIARYESDRVSPSVSTLERVLRAAGEELVISSS,-0.0184
10,HMTINPFSTLAVRELEILHYLLNGHRTKEIATNLGLKMNTVSTIKSNIFEKVKADSFTHLLQLAHVHQIS,-0.0952
11,HMTIQNSILDEIPNIGASRKRAILEAFGSVHRLRKASPEMISAKVEGIGPEMAQAIHDYLVKHPAT,0.223
12,HMTISAQAITPRLEVIKNFVLMEEWDAAQTQLEKLRSFTEIWSLDPLFSAMKKKDGQKISDWITGFIKDNM,-1.69
13,HMTISDEAMQAGRDAFIQALVAMGAEKNADAMASIEKALSADPGNKEYLATRDLIKKSMGMKK,0.138
14,HMTISGSDLKAQREALNIPLERIAKETRIRLSILQDLEDEEYSELSSSAQTKGFLRLYADYLSSHKQRLG,0.0379
15,HMTITDDETHKVLEEGASRMSEGLTFRDLVDLDRLHLTARGVIQKVLNENRIDADVDTIANMAQKLVARVS,-0.567
16,HMTKAEVLLDLQQRIISEEFLPGSWLVERDLSSEYGLSRTPIREILNKLVILGLISVQKNRGYQVR,-0.792
17,HMTKAILTANDVRNGDIVFWTADQRWSTSIDDAAIGYGKDDTDQLADAGKQAEAANTVVGAYLIALR,-1.14
18,HMTKASEELYFRLKEELGTGVIVEHKKYGEGVVTQLDDRLVHIMFQDDTLRMMDLKILANAGLLKVK,-1.87
19,HMTKDYVVIYEGLAQTEAVEILGKLQEMGVSAKVDHNDSILVLKDEEDQIRMALATEGYPKS,-0.803
20,HMTKEEKEKREKYEKLMKKADELVTAKNHKEAVTVLGQAKAYANPQQTKEIEEKIKAQTAELDKG,0.24
21,HMTKGVQMFAEQLKRTRQSRHYSQAEIASKLGVTQQAIAKWETGVSTPSPTSISKLSDILGISTDVLLKGA,≥ 0.43
22,HMTKIAFPQMLNKYRLQKNLTMEQLAEEVGKTKSTISKWEAGTRSPKIYEIEEIAKYFGVEPQTMMF,-0.548
23,HMTKINAPMPGNILDVKVNVGDHVEANQLVLMLEAMKMENEIFTPVAGTVVGVHVKKGDSVNSDDLLISI,-1.09
24,HMTKKEFLDILTESLAGNVPASEIEENIRYYKDYIENGEESEEKALEQLGDPHLIARTIIDSFIA,-1.46
25,HMTKLLSALQADKFAKKLANDTNFGSNFARMGESAMDFTNRLVEELQRDEGKVANYMPYLTKLGF,-0.305

row,Sequence,soluble fraction (log2)
1,HMTKLSPKEKSILHIIGDNAGIKSGQIAKRLDIPSPTVKRILSDLVSQNLIEKFGTGPGTNYSI,0.22
2,HMTKLTTDERSVYLHIQNKPGVSASSIREALGYKKSKLTSILAQLLEVHKIIDTEGTGKSLKYIL,0.091
3,HMTKMTPNRQLVLSVLQSSGKPLSAYELLDRLREQGTQWQPPTAYRALDYLVEQGLAHYLQSIQKYV,-0.317
4,HMTKNEFLASFQNELQKRHIPDWEDVVSEYEQHFALKQADGFSEEEIAAKLGAPAELAAQFEA,-0.0811
5,HMTKQIILVHVAGKVKKPDVYPLLQGSRVADAIKAAGGAKKGVELNDINLARVLIDGEQVFVGYVPE,-0.277
6,HMTKQRSAIMNLLAERNTPLTAEEIGEAIAPSYPKLALSTVYRNLELFTNAGLLEKSFFQDGITRYSLTK,-0.242
7,HMTKRTEPSILQNFDTEIAELIAKNRGISIMDALRIFLASKTHEMLENDEMKLWYFSPLAVFDMWENE,-0.61
8,HMTKSIDFDFREDGVYIKADKDVTIVDIVTKIDLRRIQSVDLTKIKQMLEIGSLDNWIKIAEPQMEK,-1.44
9,HMTKSTLQRQKIIADLIESGNISSQNQLKGLLKKNSLLITQATLSRDLSELGAIKKRQKDGLLVYVLPK,-0.0863
10,HMTKTKADKIDYAIGDSGTEPPTEDKWTDLAHLPLIKAGQFQWTRRTEYYSDGSTAVSYNIAKSE,0.156
11,HMTKYKEIVDQLRTNIYEGVFPALSKLPEQTALAKRFQTSRMTIQKALNQLKQEGLISTKRGHGTYVNSAT,0.021
12,HMTKYVEGQKYVFEFRDGTITIGTYLRTGEGNIYIKDLSGEDIYIPKIMIAQIHLATDDNVKGDEFWF,-1.17
13,HMTLDSLEKLSVNDLEKMLVNMPVGYKTIFLLSVIDEYSHKEIGELLGITPETSRSQLFRAIKWIKTNIF,-0.706
14,HMTLGARTLAAIQSLPKVQQAVFTMKHFEGLKYREISQITGTSEGALKASYHIALEKIKAFLREK,-0.443
15,HMTLGEHILQYRTARGWSQEDLANALEVSRQSVSKWETDASTPELDKIVRLSEIFQVSIDELVTGKA,0.0683
16,HMTLGENLQNLRKEAGLSQEQVAQQLFVSRQTVSKWENNLAEPGVENLKALARLYGVTLDRLVGM,-0.323
17,HMTLKVQLSEISKMVSLSYIAKKYFNKSQSWLSQRINGNTIHNKPAKFTSEELATLQFALKDIGNILNSTV,-0.658
18,HMTLLVPASKEAILGGLAKIDALKVILKPEKDYSKTHAMTIGTKDEVIAKLDSFLSGMDSEKNQVLIQEYM,-0.135
19,HMTLSDIGHAVRTRRTELGLSQVQLARLSGLSRQTLVGLENGTLNDLGINRVAQLLAVLGLDAP,-0.203
20,HMTLSHAINRLRLNANMSQEQFAGLFHVSQQSVQKWESGDSVPELSKLIAIAKHFGISLDALILGN,0.0336
21,HMTLTEQQITDNYKELRKIINDTFSGLRLDKLNHMYDDLEDRMVVAPASSVEHYHNSKVGGYVEHILHVI,-0.132
22,HMTLTIEDGYVNAKLKTTVEGLAEDSTIKVDSIEYTNAGKNDILTVFVEDKPYRVEKYKINIAPEDS,-1.12
23,HMTLVSALDQKTKDSAYYRGTYLAGKISAGKMTKQEAVADIMKNYDGNTAAMKVAAEKAGVSDLLSQTVL,0.0773
24,HMTMKQVFIETDANVNQKIMLNEKEAHHLFDVLRTSDKETIRVVTNTSQVFLARVQQKPYIYLFDKMTVE,-1.76
25,HMTMNYFIIENNQQVGPLTLEQLVARNITSDTLVWKEGMEDWQPAWKVDELHTVLDQIRANAEQ,-1.19
